Experiments:
[1] = biological target: T1, human IL-27 (human, UniProt Q8NEV9 29-243; Q14213 21-229); test: SPR (BIAcore 2000), antibody captured on Protein A
T1 sequence (looked up) 1: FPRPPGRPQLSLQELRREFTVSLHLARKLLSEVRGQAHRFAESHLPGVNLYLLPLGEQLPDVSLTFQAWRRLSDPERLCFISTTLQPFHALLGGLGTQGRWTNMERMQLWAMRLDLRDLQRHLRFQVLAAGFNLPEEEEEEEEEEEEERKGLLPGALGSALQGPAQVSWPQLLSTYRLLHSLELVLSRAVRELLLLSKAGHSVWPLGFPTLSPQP
T1 sequence (looked up) 2: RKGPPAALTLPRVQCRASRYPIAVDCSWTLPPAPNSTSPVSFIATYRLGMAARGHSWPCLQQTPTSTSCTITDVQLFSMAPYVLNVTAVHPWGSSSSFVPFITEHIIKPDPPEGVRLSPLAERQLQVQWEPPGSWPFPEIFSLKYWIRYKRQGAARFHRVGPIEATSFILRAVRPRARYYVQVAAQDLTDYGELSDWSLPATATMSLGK

[2] = biological target: T2, human IL-12 (human, UniProt P29459 23-219; P29460 23-328); test: SPR (BIAcore 2000), antibody captured on Protein A
T2 sequence (looked up) 1: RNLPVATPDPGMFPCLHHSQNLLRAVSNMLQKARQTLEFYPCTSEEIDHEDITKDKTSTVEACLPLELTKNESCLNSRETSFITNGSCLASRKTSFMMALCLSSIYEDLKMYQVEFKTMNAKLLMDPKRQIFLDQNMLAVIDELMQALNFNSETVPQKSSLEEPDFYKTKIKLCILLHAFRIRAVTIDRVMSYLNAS
T2 sequence (looked up) 2: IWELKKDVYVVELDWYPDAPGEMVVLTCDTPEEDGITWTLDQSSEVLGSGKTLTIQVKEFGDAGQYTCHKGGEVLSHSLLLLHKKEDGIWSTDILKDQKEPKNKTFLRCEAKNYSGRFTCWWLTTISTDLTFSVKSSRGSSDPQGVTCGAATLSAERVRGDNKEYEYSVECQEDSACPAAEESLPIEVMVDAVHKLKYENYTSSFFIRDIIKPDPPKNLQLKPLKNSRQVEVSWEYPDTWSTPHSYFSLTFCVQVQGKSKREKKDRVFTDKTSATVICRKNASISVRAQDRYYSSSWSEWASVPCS

[3] = biological target: T3, human IL-35 (human, UniProt P29459 23-219; Q14213 21-229); test: SPR (BIAcore 2000), antibody captured on Protein A
T3 sequence (looked up) 1: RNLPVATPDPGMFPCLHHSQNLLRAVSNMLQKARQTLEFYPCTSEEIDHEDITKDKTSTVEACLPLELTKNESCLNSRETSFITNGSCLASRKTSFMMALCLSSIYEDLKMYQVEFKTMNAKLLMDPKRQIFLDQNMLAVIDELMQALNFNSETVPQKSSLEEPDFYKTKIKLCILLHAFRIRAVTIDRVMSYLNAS
T3 sequence (looked up) 2: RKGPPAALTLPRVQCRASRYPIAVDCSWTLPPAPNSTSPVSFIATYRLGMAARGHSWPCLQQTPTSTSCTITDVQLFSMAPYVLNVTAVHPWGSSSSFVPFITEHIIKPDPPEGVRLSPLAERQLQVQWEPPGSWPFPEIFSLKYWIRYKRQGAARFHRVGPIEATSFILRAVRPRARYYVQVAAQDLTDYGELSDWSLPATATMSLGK

[4] = biological target: T4, rabbit IL-23 (rabbit, UniProt G1SSM0 20-191); test: SPR (Biacore T200), antibody captured on Protein A, IL-23 as analyte, 37 C, n=1
T4 construct: not shown: The rabbit p40 subunit (IL-12B) of the heterodimer; Any tag or linker of the reagent is also unstated
T4 sequence (p19): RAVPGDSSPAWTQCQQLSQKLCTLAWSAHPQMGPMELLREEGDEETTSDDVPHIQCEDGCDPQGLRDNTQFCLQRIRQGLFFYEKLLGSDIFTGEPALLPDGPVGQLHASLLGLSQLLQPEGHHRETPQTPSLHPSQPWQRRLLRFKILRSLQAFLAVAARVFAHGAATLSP
Procedure: Affinity and kinetics of Bispecific Antibody 1 to human, cynomolgus monkey, mouse, rat, and rabbit IL-23 are measured using a Biacore T200 instrument (BIAcore® AB, Upsala, Sweden). Briefly, a protein-A coupled CM5 chip is generated using standard amine-coupling protocols. Bispecific Antibody 1 is diluted to 1 μg/mL in running buffer, and approximately 100 RU is captured to the chip surface. A concentration series of each ligand is injected over all flow cells at 100 μL/minute for 180 seconds followed by a 900 second dissociation phase followed by chip regeneration. Data is analyzed in Biacore T200 Evaluation Software Version 1.0 by flow-cell 1 reference subtraction along with 0 nM blank subtraction. Human, cynomolgus monkey, and rabbit IL-23 data are fit globally using a “1:1 (Langmuir) Binding” binding model to determine the on-rate (kₒₙ) and off-rate (koff) for each ligand. The affinity (KD) is calculated from the binding kinetics according to the relationship KD=koff/kₒₙ. Mouse IL-23 binding data is fit using a “Steady State Affinity” binding model to determine affinity (KD). Stoichiometry of binding is calculated according to the relationship: Stoichiometry of binding is calculated according to the relationship: Stoichiometry=[RUₘₐₓ/RU_{Bispecific Antibody 1}]/[MWantigen/MW_{Bispecific Antibody 1}] where MWantigen is the molecular weight of human IL-23 and MW_{Bispecific Antibody 1} is 150 kDa.

[5] = biological target: T5, mouse/rat CGRP (mouse/rat, UniProt P01256 83-119 (rat entry)); test: SPR (Biacore T100 or T200), antibody captured on Protein A, CGRP as analyte, 37 C, n=1
T5 construct: also used as the target of the rat dermal blood flow assay (endogenous rat CGRP)
T5 peptide (looked up): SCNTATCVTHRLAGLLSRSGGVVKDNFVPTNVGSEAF
Procedure: (§1) Affinity and kinetics of Bispecific Antibody 1 to human/cynomolgus monkey, mouse/rat, and rabbit CGRP are measured using a Biacore T100 or T200 instrument (BIAcore® AB, Upsala, Sweden). Briefly, a protein-A coupled CM5 chip is generated using standard amine-coupling protocols. […] A concentration series of each ligand is injected over all flow cells at 70-100 μL/minute for 180 seconds followed by a 1500-1800 second dissociation phase followed by chip regeneration.
(§2) Data is analyzed by flow-cell 1 reference subtraction along with 0 nM blank subtraction. The on-rate (kₒₙ) and off-rate (koff) for each ligand are fit globally using a “1:1 (Langmuir) Binding” binding model. The affinity (KD) is calculated from the binding kinetics according to the relationship KD=koff/kₒₙ. Stoichiometry of binding is calculated according to the relationship: Stoichiometry=[RUₘₐₓ/RU_{Bispecific Antibody 1}]/[MWantigen/MW_{Bispecific Antibody 1}] where MWantigen is the molecular weight of human CGRP and MW_{Bispecific Antibody 1} is 150 kDa.

[6] = biological target: rabbit CGRP (rabbit); test: as above
Procedure: as §1, §2

[7] = biological target: T6, human CGRP (human/cynomolgus monkey CGRP) (human, not fully specified); test: SPR (Biacore T100 or T200), antibody captured on Protein A, CGRP as analyte, 37 C, n=3
T6 construct: also called human Calcitonin Gene Related Peptide; human CGRP peptide (Bachem H-1470)
T6 peptide: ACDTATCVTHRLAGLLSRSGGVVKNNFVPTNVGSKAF
Procedure: as §1, §2

[8] = biological target: T6, human CGRP (human/cynomolgus monkey …); test: SPR (BIAcore 3000), antibody captured on Protein A, after CGRP injections, 25 C
[9] = biological target: T7, mouse IL-23 (mouse, UniProt Q9EQ14 22-196; P43432 23-335); test: SPR (Biacore T200), antibody captured on Protein A, steady-state affinity model, 37 C, n=2
T7 sequence (looked up) 1: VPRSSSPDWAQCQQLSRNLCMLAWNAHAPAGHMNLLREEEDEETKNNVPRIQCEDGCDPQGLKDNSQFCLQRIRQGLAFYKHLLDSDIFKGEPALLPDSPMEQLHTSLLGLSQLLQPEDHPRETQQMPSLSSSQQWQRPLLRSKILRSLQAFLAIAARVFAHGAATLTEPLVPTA
T7 sequence (looked up) 2: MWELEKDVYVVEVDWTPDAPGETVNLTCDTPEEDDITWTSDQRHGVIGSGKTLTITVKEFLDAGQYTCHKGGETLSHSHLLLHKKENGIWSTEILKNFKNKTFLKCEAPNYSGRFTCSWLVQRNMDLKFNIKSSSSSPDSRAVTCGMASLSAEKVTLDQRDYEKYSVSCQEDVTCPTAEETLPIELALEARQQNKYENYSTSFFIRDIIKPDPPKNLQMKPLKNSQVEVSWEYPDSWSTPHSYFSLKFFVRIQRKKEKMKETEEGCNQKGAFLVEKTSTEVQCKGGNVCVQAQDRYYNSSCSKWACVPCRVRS
Procedure: Affinity and kinetics of Bispecific Antibody 1 to human, cynomolgus monkey, mouse, rat, and rabbit IL-23 are measured using a Biacore T200 instrument (BIAcore® AB, Upsala, Sweden). Briefly, a protein-A coupled CM5 chip is generated using standard amine-coupling protocols. Bispecific Antibody 1 is diluted to 1 μg/mL in running buffer, and approximately 100 RU is captured to the chip surface. A concentration series of each ligand is injected over all flow cells at 100 μL/minute for 180 seconds followed by a 900 second dissociation phase followed by chip regeneration. Data is analyzed in Biacore T200 Evaluation Software Version 1.0 by flow-cell 1 reference subtraction along with 0 nM blank subtraction. Human, cynomolgus monkey, and rabbit IL-23 data are fit globally using a “1:1 (Langmuir) Binding” binding model to determine the on-rate (kₒₙ) and off-rate (koff) for each ligand. The affinity (KD) is calculated from the binding kinetics according to the relationship KD=koff/kₒₙ. […] Stoichiometry of binding is calculated according to the relationship: Stoichiometry of binding is calculated according to the relationship: Stoichiometry=[RUₘₐₓ/RU_{Bispecific Antibody 1}]/[MWantigen/MW_{Bispecific Antibody 1}] where MWantigen is the molecular weight of human IL-23 and MW_{Bispecific Antibody 1} is 150 kDa. […]

- binding result [1]: no binding (tested: 400 nM)
- binding result [2]: no binding (tested: 400 nM)
- binding result [3]: no binding (tested: 400 nM)
- Kd [4]: 1020 nM
- Stoichiometry [4]: 1
- koff [4]: 0.018 s⁻¹
- kon [4]: 17000 M⁻¹ s⁻¹
- Kd [5]: 0.169 nM
- Stoichiometry [5]: 0.8
- koff [5]: 0.00097 s⁻¹
- kon [5]: 5.7e+06 M⁻¹ s⁻¹
- Kd [6]: 0.021 nM
- Stoichiometry [6]: 0.9
- koff [6]: 0.00047 s⁻¹
- kon [6]: 2.3e+07 M⁻¹ s⁻¹
- Kd [7]: 0.0071 nM
- Stoichiometry [7]: 1
- koff [7]: 7.2e-05 s⁻¹
- kon [7]: 1.5e+07 M⁻¹ s⁻¹
- stoichiometry of human CGRP-to-Bispecific Antibody 1 [8]: 0.8
- Kd [9]: > 100 nM
B1: Bispecific Antibody 1 (bispecific antibody, human IgG1, kappa, lambda, L234A L235A)
heavy 1: QVQLVQSGAEVKKPGSSVKVSCKASGYTFGNYWMQWVRYAPGQGLEWMGAIYEGTGKTVYIQKFADRVTITADKSTSTAYMELSSLRSEDTAVYYCARLSDYVSGFGYWGRGTTVTVSSASTKGPSVFPLAPCSKSTSGGTAALGCLVKDYFPEPVTVSWNSGALTSGVHTFPAVLQSSGLYSLSSVVTVPSSSLGTQTYICNVNHKPSNTKVDKKVEPDSGDKTHTCPPCPAPEAAGGPSVFLFPPKPKDTLMISRTPEVTCVVVDVSHEDPEVKFNWYVDGVEVHNAKTKPREEQYNSTYRVVSVLTVLHQDWLNGKEYKCKVSNKALPAPIEKTISKAKGQPREPQVYTLPPSRGDMTKNQVQLTCLVKGFYPSDIAVEWESNGQPENNYKTTPPVLDSDGSFFLASKLTVDKSRWQQGNVFSCSVMHEALHNHYTQKSLSLSPG
light 1: DIQMTQSPSSLSASVGDRVTITCRASKDISKYLNWYQRKPGDAPKLLIYYTSGYHSGVPSRFSGSGSGTDFTLTISSLQPEDFATYYCQQGDALPPTFGGGTKVEIKRTVAAPSVFIFPPSKEQLKSGTASVVCLLNNFYPREAKVQWKVDNALQSGNSQESVTEQDSKDSTYSLSSTLTLSKADYEKHKVYACEVTHQGLSSPVTKSFNRGEC
heavy 2: QVQLVQSGAEVKKPGSSVKVSCKASGYPFTRYVMHWVRKAPGQGLEWMGYINPYNDGVNYNEEFKGRVTITADESTSTAYMELSSLRSEDTAVYYCARNWDTGLWGQGTTVTVSSASTKGPSVFPLAPSSKSTSGGTAALGCLVKDYFPEPVTVSWNSGALTSGVATGPAVLQSSGLYSLSSVVTVPSSSLGTQTYICNVNHKPSNTKVDKKVEPKSCDKTHTCPPCPAPEAAGGPSVFLFPPKPKDTLMISRTPEVTCVVVDVSHEDPEVKFNWYVDGVEVHNAKTKPREEQYNSTYRVVSVLTVLHQDWLNGKEYKCKVSNKALPAPIEKTISKAKGQPREPQVSTLPPSREEMTKNQVSLMCLVYGFYPSDIAVEWESNGQPENNYKTTPPVLDSDGSFFLYSVLTVDKSRWQQGNVFSCSVMHEALHNHYTQKSLSLSPG
light 2: RIQMTQSPSSLSASVGDRVTITCKASDHIGKFLTWYQDKPGKAPKLLIYGATSKLTGVPSRFSGSGSGTDFTLTISSLQPEDFATYYCQQYWSTPFTFGGGTKVEIKGQPKAAPSVTLFPPSSEELQANKATLVCYISDFYPGAVTVAWKADSSPVKAGVETTTPSKQSNNKYAAWSYLSLTPEQWKSHRSYSCQVTHEGSTVEKTVAPTEC
notes: Heterodimeric IgG1 with one arm for CGRP and one arm for the p19 subunit of IL-23; also called exemplified bispecific antibody; anti-CGRP/anti-IL-23 IgG bispecific antibody

Source: patent US20180319880A1 (Eli Lilly, published 2018)
